Key:
[1] = molecular target: HIV-1 AD8 gp120 surface glycoprotein; assay: immunoprecipitation of pulse-chase biosynthetically labelled Env from cell lysates (c) and supernatants (s), SDS-PAGE and phosphorimaging; settings: transfected 293T cells; cellular Env was analysed 5 h post synthesis; parent: 1
[2] = molecular target: HIV-1 AD8 gp120 surface glycoprotein; assay: Western blotting of pelleted virions (virion-associated gp120 normalised to p24); settings: virions from 293T cells transfected with pAD8 proviral clones; virions were analysed at 48 h posttransfection; parent: 2.16
[3] = molecular target: HIV-1 AD8 gp41 W596L/K601H/D674E (HIV-1 AD8)
[4] = molecular target: HIV-1 AD8 gp41 W596L/K601H (HIV-1 AD8)

| Substance | ratio to parent [1] | other: gp120 pixels/p24 pixels [2] | neutralization of HIV-1 AD8 virus in TZM-bl cells (luciferase), C34 IC50 against that for WT virus (log10 decrease against WT) [3] | neutralization of HIV-1 AD8 virus in TZM-bl cells (luciferase), C34 IC50 against that for WT virus (log10 decrease against WT) [4] |
| --- | --- | --- | --- | --- |
| HIV-1 AD8 gp41 transmembrane glycoprotein, wild type W596L; K601H; D674E | 3.59 | 1.07 | – | – |
| HIV-1 AD8 gp41 transmembrane glycoprotein, wild type WL/KH/DG | 5.36 | 0.8 | – | – |
| HIV-1 AD8 gp41 transmembrane glycoprotein, wild type ΔTW/WL/KH/DN | 4.13 | 0.6 | – | – |
| HIV-1 AD8 gp41 transmembrane glycoprotein, wild type WL/KH/DN | 3.96 | 0.67 | – | – |
| C34 fusion inhibitor peptide | – | – | 0.5 | 0.5 |
| HIV-1 AD8 gp41 transmembrane glycoprotein, wild type W596L; K601H | 3.37 | 0.93 | – | – |
